Measurements reported in patent publication US20110053865A1 (Ablynx, published 2011).
Several values for one entry are separate records, joined by “and”; a condition that tells them apart may be missing. Equal values may be shown once. Read-outs that look alike come from different tables or passages of the source.

T1: recombinant human IL-23 (p19/p40) (human, UniProt Q9NPF7 20-189; P29460 23-328)
T1 sequence (looked up) 1: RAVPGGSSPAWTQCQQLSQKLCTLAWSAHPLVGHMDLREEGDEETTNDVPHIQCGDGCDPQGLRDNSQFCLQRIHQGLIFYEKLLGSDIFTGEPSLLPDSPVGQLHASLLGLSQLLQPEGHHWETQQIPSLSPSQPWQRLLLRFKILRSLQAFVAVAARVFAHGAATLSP
T1 sequence (looked up) 2: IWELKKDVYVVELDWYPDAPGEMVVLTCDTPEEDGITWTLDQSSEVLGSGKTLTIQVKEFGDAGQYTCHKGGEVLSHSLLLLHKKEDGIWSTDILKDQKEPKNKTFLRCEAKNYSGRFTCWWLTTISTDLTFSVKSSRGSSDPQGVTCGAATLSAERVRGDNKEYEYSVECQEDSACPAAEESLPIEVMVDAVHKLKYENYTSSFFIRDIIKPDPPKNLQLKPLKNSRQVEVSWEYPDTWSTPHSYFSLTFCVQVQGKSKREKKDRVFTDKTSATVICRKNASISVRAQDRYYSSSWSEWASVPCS

T2: native human IL-23 (supernatant of SAC-stimulated THP-1 cells) (human, UniProt Q9NPF7 20-189; P29460 23-328)
T2 sequence (looked up) 1: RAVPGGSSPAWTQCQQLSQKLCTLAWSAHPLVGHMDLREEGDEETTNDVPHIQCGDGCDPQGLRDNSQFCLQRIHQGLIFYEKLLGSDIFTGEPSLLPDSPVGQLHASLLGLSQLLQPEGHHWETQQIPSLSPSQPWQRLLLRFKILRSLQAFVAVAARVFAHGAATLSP
T2 sequence (looked up) 2: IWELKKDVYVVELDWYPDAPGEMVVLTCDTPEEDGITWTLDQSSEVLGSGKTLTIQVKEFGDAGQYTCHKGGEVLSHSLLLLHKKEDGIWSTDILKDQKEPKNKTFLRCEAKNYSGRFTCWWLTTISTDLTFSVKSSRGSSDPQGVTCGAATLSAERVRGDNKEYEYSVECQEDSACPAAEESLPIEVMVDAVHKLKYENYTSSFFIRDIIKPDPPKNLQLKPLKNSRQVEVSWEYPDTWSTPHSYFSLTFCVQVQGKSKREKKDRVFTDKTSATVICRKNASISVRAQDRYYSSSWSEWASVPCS


Experiments:
[1] = biological target: T1, recombinant human IL-23 (p19/p40); assay: cell-based or functional assay
cynomolgus IL-23 [2] = biological target: cynomolgus IL-23 (cynomolgus); assay: cell-based or functional assay
[3] = biological target: T1, recombinant human IL-23 (p19/p40); assay: cell-based or functional assay; remark: listed apart in the source
cynomolgus IL-23 [4] = biological target: cynomolgus IL-23 (cynomolgus); assay: cell-based or functional assay; remark: listed apart in the source
[5] = biological target: T1, recombinant human IL-23 (p19/p40); assay: cell-based or functional assay; remark: listed apart in the source
cynomolgus IL-23 [6] = biological target: cynomolgus IL-23 (cynomolgus); assay: cell-based or functional assay; remark: listed apart in the source
cynomolgus IL-23 [7] = biological target: T3, cynomolgus IL-23 (cynomolgus); assay: alpha-screen, cIL-23/IL-23R
T3 construct: also called cyno IL-23; cIL-23

[8] = biological target: T1, recombinant human IL-23 (p19/p40); assay: alpha-screen, hIL-23/IL-23R
cynomolgus IL-23 [9] = biological target: T3, cynomolgus IL-23; assay: alpha-screen, cIL-23/hIL-23R
[10] = biological target: T1, recombinant human IL-23 (p19/p40); assay: alpha-screen, hIL-23/hIL-23R
[11] = biological target: T1, recombinant human IL-23 (p19/p40); assay: SPR Biacore 3000, hIL-23 on chip
Experimental: (§1) Binding kinetics of the second round variants are in depth analysed by Surface Plasmon Resonance (Biacore 3000). […] Nanobody binding was assessed at one concentration (100 nM). Each Nanobody was injected for 4 minutes at a flow rate of 45 μl/min to allow binding to chip-bound antigen. Next, binding buffer without Nanobody was sent over the chip at the same flow rate to allow spontaneous dissociation of bound Nanobody.

[12] = biological target: T1, recombinant human IL-23 (p19/p40); assay: SPR Biacore, hIL-23; kd1 125-155 s
[13] = biological target: T1, recombinant human IL-23 (p19/p40); assay: inhibition ELISA, hIL-23/hIL-23R-Fc
Experimental: Visualisation was performed with enhanced soluble 3,3′,5,5′-tetramethylbenzidine (esTMB) colouring reagent, after which the coloring reaction was stopped with 1N HCl. The absorbance was measured at 450 nm.

[14] = biological target: T1, recombinant human IL-23 (p19/p40); assay: SPR Biacore, hIL-23; kd2 200-1000 s
[15] = biological target: T1, recombinant human IL-23 (p19/p40); assay: SPR Biacore 3000, hIL-23 on chip, 100 nM only (indicative)
Experimental: as §1

[16] = biological target: T1, recombinant human IL-23 (p19/p40); assay: cell-based or functional assay; remark: listed apart in the source
[17] = biological target: T1, recombinant human IL-23 (p19/p40); assay: cell-based or functional assay; remark: listed apart in the source
cynomolgus IL-23 [18] = biological target: T3, cynomolgus IL-23; assay: cell-based or functional assay; remark: listed apart in the source
[19] = biological target: T2, native human IL-23 (supernatant of …); assay: cell-based or functional assay

Row | Binder | IC50, mouse splenocyte assay (mIL-22) [1] [nM] | IC50, mouse splenocyte assay (mIL-22) (cynomolgus IL-23 [2]) [nM] | IC50, splenocyte assay hIL-23 [3] [nM] | IC50, splenocyte assay cIL-23 (cynomolgus IL-23 [4]) [nM] | IC50, splenocyte assay hIL-23 [5] [nM] | IC50, splenocyte assay cIL-23 (cynomolgus IL-23 [6]) [nM] | IC50 (cynomolgus IL-23 [7]) [nM] | IC50 [8] [nM] | IC50 (cynomolgus IL-23 [9]) [nM] | IC50 [10] [nM] | koff [11] [s⁻¹] | koff [12] [s⁻¹] | IC50 [13] [nM] | koff [14] [s⁻¹] | Kd [15] [nM] | kon [15] [M⁻¹ s⁻¹] | IC50, splenocyte assay, 19 pM hIL-23 [16] [pM] | IC50, splenocyte assay, 19 pM hIL-23 [17] [pM] | IC50, splenocyte assay, 3.8 pM cIL-23 (cynomolgus IL-23 [18]) [pM] | IC50, splenocyte assay, 19 pM native hIL-23 (Expt 1) [19]
1 | P23IL119A3 (VHH, p19+ Nanobody) VHH: EVQLVESGGGLVQAGGSLRLSCAASGRIFSLPASGNIFNLLTIAWHRQAPGMQRELVATINSGSRTNYADSVKGRFTISRDNAQKTVYLQMNNLKPEDTAVYYCQTSGSGSPNFWGQGTQVTVSS | 25.5 | 37.4 | 16.8 | 60.5 | 16.8 | 60.5 | 0.42 | 0.76 | 0.5 | 1.21 | 0.0048 | 0.0041 | 1.76 | 0.0014 | 1.4 | 3.7e+06 | – | – | – | –
2 | P23IL119A3-BASIC (VHH) VHH: EVQLVESGGGLVQPGGSLRLSCAASGRIFSLPASGNIFNLLTIAWYRQAPGMQRELVATINSGSRTNYADSVKGRFTISRDNAQKTLYLQMNNLRPEDTAVYYCQTSGSGSPNFWGQGTLVTVSS | – | – | 37.3 | 66.6 | – | – | – | – | 0.73 | 1.47 | – | 0.0052 | – | 0.002 | – | – | – | – | – | –
3 | P23IL119A3-35GS-81G2 (bispecific antibody) EVQLVESGGGLVQAGGSLRLSCAASGRIFSLPASGNIFNLLTIAWHRQAPGMQRELVATINSGSRTNYADSVKGRFTISRDNAQKTVYLQMNNLKPEDTAVYYCQTSGSGSPNFWGQGTQVTVSSGGGGSGGGGSGGGGSGGGGSGGGGSGGGGSGGGGSEVQLVESGGGLVQPGGSLRLSCIASGLPFSTKSMGWFRQAPGKEREFVARISPGGTSRYYGDFVKGRFAISRDNAKNTTWLQMNSLKAEDTAVYYCASGERSTYIGSNYYRTNEYDYWGTGTQVTVSS | – | – | – | – | – | – | – | – | – | – | – | – | – | – | – | – | 14 | 12 | 13 | 76 pM and 153 pM
